Measured values reported in patent publication US20260232827A1 (Zymeworks, published 2026).

T1: human sodium-dependent phosphate transporter 2B (NaPi2b) (human, UniProt O95436 1-690)
T1 construct: UniProt ID is given as 095436 [sic]; also called hNaPi2b; Hu NaPi2b
T1 sequence: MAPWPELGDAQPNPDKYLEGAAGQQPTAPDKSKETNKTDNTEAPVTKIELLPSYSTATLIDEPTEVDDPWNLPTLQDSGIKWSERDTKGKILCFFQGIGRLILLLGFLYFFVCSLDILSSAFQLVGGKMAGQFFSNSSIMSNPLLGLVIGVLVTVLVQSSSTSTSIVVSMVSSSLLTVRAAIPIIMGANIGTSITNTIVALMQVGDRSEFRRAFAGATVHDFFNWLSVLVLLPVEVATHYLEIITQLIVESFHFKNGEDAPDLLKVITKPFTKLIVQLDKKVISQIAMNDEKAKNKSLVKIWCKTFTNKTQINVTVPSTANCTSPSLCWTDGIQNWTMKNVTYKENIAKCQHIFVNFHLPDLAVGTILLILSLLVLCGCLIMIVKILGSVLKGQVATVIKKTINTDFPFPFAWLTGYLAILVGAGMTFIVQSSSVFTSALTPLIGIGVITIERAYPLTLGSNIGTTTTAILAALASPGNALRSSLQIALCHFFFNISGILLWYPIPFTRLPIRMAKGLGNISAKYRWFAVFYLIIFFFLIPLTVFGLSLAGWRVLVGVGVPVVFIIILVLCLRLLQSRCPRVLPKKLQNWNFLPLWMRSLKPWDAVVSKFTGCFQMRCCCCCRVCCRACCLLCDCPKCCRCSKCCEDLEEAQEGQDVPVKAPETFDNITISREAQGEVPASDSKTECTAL

T2: human NaPi2a (human, UniProt Q06495 1-639)
T2 construct: whole, on cells; also called Hu NaPi2a; SLC34A1
T2 sequence (looked up): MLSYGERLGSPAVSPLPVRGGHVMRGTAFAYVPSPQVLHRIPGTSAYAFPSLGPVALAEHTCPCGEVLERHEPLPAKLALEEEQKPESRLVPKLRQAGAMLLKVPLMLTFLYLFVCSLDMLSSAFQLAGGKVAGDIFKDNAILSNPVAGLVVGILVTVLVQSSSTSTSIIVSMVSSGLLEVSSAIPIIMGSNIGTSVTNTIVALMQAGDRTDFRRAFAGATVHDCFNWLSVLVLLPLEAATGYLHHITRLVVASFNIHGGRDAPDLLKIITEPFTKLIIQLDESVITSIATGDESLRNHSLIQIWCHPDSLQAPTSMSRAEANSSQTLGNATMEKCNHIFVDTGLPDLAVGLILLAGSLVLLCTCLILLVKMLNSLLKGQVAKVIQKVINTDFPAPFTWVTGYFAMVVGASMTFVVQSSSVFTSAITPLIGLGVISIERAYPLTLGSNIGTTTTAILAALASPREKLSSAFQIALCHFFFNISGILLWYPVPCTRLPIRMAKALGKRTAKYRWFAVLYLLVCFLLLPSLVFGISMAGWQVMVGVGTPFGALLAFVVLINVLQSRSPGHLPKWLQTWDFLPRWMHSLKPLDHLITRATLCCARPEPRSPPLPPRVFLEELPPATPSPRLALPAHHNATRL

B1: v18993 (lifastuzumab), reference anti-NaPi2b antibody (antibody, human IgG1, kappa)
heavy 1: GEVQLVESGGGLVQPGGSLRLSCAASGFSFSDFAMSWVRQAPGKGLEWVATIGRVAFHTYYPDSMKGRFTISRDNSKNTLYLQMNSLRAEDTAVYYCARHRGFDVGHFDFWGQGTLVTVSSASTKGPSVFPLAPSSKSTSGGTAALGCLVKDYFPEPVTVSWNSGALTSGVHTFPAVLQSSGLYSLSSVVTVPSSSLGTQTYICNVNHKPSNTKVDKKVEPKSCDKTHTCPPCPAPELLGGPSVFLFPPKPKDTLMISRTPEVTCVVVDVSHEDPEVKFNWYVDGVEVHNAKTKPREEQYNSTYRVVSVLTVLHQDWLNGKEYKCKVSNKALPAPIEKTISKAKGQPREPQVYVYPPSRDELTKNQVSLTCLVKGFYPSDIAVEWESNGQPENNYKTTPPVLDSDGSFALVSKLTVDKSRWQQGNVFSCSVMHEALHNHYTQKSLSLSPG
heavy 2: not shown
light: GDIQMTQSPSSLSASVGDRVTITCRSSETLVHSSGNTYLEWYQQKPGKAPKLLIYRVSNRFSGVPSRFSGSGSGTDFTLTISSLQPEDFATYYCFQGSFNPLTFGQGTKVEIKRTVAAPSVFIFPPSDEQLKSGTASVVCLLNNFYPREAKVQWKVDNALQSGNSQESVTEQDSKDSTYSLSSTLTLSKADYEKHKVYACEVTHQGLSSPVTKSFNRGEC
B2: v22277 (palivizumab, anti-RSV negative control, heterodimeric Fc) (antibody, human IgG1, kappa)
heavy 1: GQVTLRESGPALVKPTQTLTLTCTFSGFSLSTSGMSVGWIRQPPGKALEWLADIWWDDKKDYNPSLKSRLTISKDTSKNQVVLKVTNMDPADTATYYCARSMITNWYFDVWGAGTTVTVSSASTKGPSVFPLAPSSKSTSGGTAALGCLVKDYFPEPVTVSWNSGALTSGVHTFPAVLQSSGLYSLSSVVTVPSSSLGTQTYICNVNHKPSNTKVDKKVEPKSCDKTHTCPPCPAPELLGGPSVFLFPPKPKDTLMISRTPEVTCVVVDVSHEDPEVKFNWYVDGVEVHNAKTKPREEQYNSTYRVVSVLTVLHQDWLNGKEYKCKVSNKALPAPIEKTISKAKGQPREPQVYVYPPSRDELTKNQVSLTCLVKGFYPSDIAVEWESNGQPENNYKTTPPVLDSDGSFALVSKLTVDKSRWQQGNVFSCSVMHEALHNHYTQKSLSLSPG
heavy 2: not shown
light: GDIQMTQSPSTLSASVGDRVTITCKSQLSVGYMHWYQQKPGKAPKLLIYDTSKLASGVPSRFSGSGSGTEFTLTISSLQPDDFATYYCFQGSGYPFTFGGGTKLEIKRTVAAPSVFIFPPSDEQLKSGTASVVCLLNNFYPREAKVQWKVDNALQSGNSQESVTEQDSKDSTYSLSSTLTLSKADYEKHKVYACEVTHQGLSSPVTKSFNRGEC
notes: also called neg control
B3: v18992 (MX35), reference anti-NaPi2b antibody (antibody, human IgG1, kappa)
heavy 1: GQVQLVQSGAEVVKPGASVKMSCKASGYTFTGYNIHWVKQAPGQGLEWIGAIYPGNGDTSYKQKFRGRATLTADTSTSTVYMELSSLRSEDSAVYYCARGETARATFAYWGQGTLVTVSSASTKGPSVFPLAPSSKSTSGGTAALGCLVKDYFPEPVTVSWNSGALTSGVHTFPAVLQSSGLYSLSSVVTVPSSSLGTQTYICNVNHKPSNTKVDKKVEPKSCDKTHTCPPCPAPELLGGPSVFLFPPKPKDTLMISRTPEVTCVVVDVSHEDPEVKFNWYVDGVEVHNAKTKPREEQYNSTYRVVSVLTVLHQDWLNGKEYKCKVSNKALPAPIEKTISKAKGQPREPQVYVYPPSRDELTKNQVSLTCLVKGFYPSDIAVEWESNGQPENNYKTTPPVLDSDGSFALVSKLTVDKSRWQQGNVFSCSVMHEALHNHYTQKSLSLSPG
heavy 2: not shown
light: GDIQMTQSPSSLSASVGDRVTITCSASQDIGNFLNWYQQKPGKTVKVLIYYTSSLYSGVPSRFSGSGSGTDYTLTISSLQPEDFATYYCQQYSKLPLTFGQGTKLELKRTVAAPSVFIFPPSDEQLKSGTASVVCLLNNFYPREAKVQWKVDNALQSGNSQESVTEQDSKDSTYSLSSTLTLSKADYEKHKVYACEVTHQGLSSPVTKSFNRGEC
B4: v38591 (humanized anti-NaPi2b antibody, wild-type Fc) (antibody, human IgG1, kappa)
heavy: not shown
light: DVQMTQSPSSLSASVGDRVTITCRASQDVYSYLNWYQQKPGKAVKLLIYYTSRLQSGVPSRFSGSGSGTDYTLTISSLQPEDFATYYCQQYNIFPWTFGQGTKLEIKRTVAAPSVFIFPPSDEQLKSGTASVVCLLNNFYPREAKVQWKVDNALQSGNSQESVTEQDSKDSTYSLSSTLTLSKADYEKHKVYACEVTHQGLSSPVTKSFNRGEC
notes: also called v38591 Wild-type; H1L2

What was measured:
[1] = target: T1, human sodium-dependent phosphate …; experiment: flow cytometry on IGROV-1 cells (endogenous NaPi2b), 24 h at 4 C, anti-human IgG Fc AF647
Protocol: Following incubation and washing, fluorescence was detected by flow cytometry on a BD LSRFortessa™ Cell Analyzer (BD Biosciences, Franklin Lake, NJ) with 1,000 minimum events collected per well.

human NaPi2a = target: T2, human NaPi2a; experiment: flow cytometry on HEK293-6e cells transfected with human NaPi2a, 24 h at 4 C, anti-human IgG Fc AF647

| Binder | EC50 (read off the curve) [1] [nM] | binding result (human NaPi2a) |
| --- | --- | --- |
| B1 | ~3 | no binding (tested: 200 nM) |
| B2 |  | no binding (tested: 200 nM) |
| B3 | ~2 | no binding (tested: 200 nM) |
| B4 | ~2 | no binding (tested: 200 nM) |
